Assay results as given in PMC3072757 (Journal of molecular biology, 2010).
Where two headings read alike, the source gives them in different places.

Key:
SEC [1] = target: the molecule itself; experiment: SEC
SEC [2] = target: the molecule itself; experiment: SEC; remark: listed apart in the source

Protein | binding result (SEC [1]) | binding result (SEC [2])
Recombinant wild-type human αB-crystallin (natural protein, UniProt P02511 1-175, looked up) MDIAIHHPWIRRPFFPFHSPSRLFDQFFGEHLLESDLFPTSTSLSPFYLRPPSFLRAPSWFDTGLSEMRLEKDRFSVNLDVKHFSPEELKVKVLGDVIEVHGKHEERQDEHGFISREFHRKYRIPADVDPLTITSSLSSDGVLTVNGPRKQVSGPERTIPITREEKPAVTAAPKK | binds | –
W9F/W60F αB-Crys (natural protein, human, UniProt P02511 1-175, looked up) MDIAIHHPFIRRPFFPFHSPSRLFDQFFGEHLLESDLFPTSTSLSPFYLRPPSFLRAPSFFDTGLSEMRLEKDRFSVNLDVKHFSPEELKVKVLGDVIEVHGKHEERQDEHGFISREFHRKYRIPADVDPLTITSSLSSDGVLTVNGPRKQVSGPERTIPITREEKPAVTAAPKK | – | binds
